Positions count from the first letter of the chain named. Like-named read-outs stand apart in the source and are kept apart here.
B1: 阳性对照抗体P1 (antibody, human IgG1, kappa, V domains shown)
VH: QVQLQESGPGLVKPSETLSLTCTVSGGSVSSGIYYWSWIRQPPGKGLEWIGYIYYSGSTNYNPSLKSRVTISVDTSKNQFSLKLSSVTAADTAVYYCARDYYVSGNYYNVDYYFFGVDVWGQGTTVTVSS
VL: EIVLTQSPATLSLSPGERATLSCRASQSVSSYLAWYQQKPGQAPRLLIYDASNRATGIPARFSGSGSGTDFTLTISSLEPEDFAVYYCQQRSNWPPLFTFGPGTKVDIKR
notes: Positive control anti-TIGIT antibody
B2: 阳性对照抗体P4 (antibody, human IgG1, kappa, V domains shown)
VH: EVQLQQSGPGLVKPSQTLSLTCAISGDSVSSNSAAWNWIRQSPSRGLEWLGKTYYRFKWYSDYAVSVKGRITINPDTSKNQFSLQLNSVTPEDTAVFYCTRESTTYDLLAGPFDYWGQGTLVTVSS
VL: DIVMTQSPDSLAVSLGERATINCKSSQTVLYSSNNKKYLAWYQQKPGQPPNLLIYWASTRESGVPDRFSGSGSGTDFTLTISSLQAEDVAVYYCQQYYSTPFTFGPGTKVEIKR
notes: as for B1
B3: 嵌合抗TIGIT抗体A0 (antibody, human IgG1, kappa, V domains shown)
VH: ELQLQQSGPELVKPGASVKISCKASGYSFTDYNMNWVKQSNGKSLEWIGVINPNHGTISYNQKFKGKATLTVDQSSSTAYMQLNSLTSEDSAVYYCANNWDVWYFDVWGTGTTVTVSS
VL: DIQMTQSPASLSASVGETVTITCRPSENIYSYLAWYRQKQGNSPQLLVYNAKALAEGVPSRFSGSGSGTQFSLKINSLQPEDFGSYYCQHHFGAPWTFGGGTKLEIKR
notes: also called B011-A-142E4C5
B4: 人源化抗TIGIT抗体A2 (antibody, human IgG1, kappa, V domains shown)
VH: QLQLVQSGAEVKKPGASVKVSCKASGYSFTDYNMNWVRQAPGQSLEWIGVINPNHGTISYNQKFKGRVTMTRDQSTSTAYMELNSLRSEDTAVYYCANNWDVWYFDVWGQGTLVTVSS
VL: DIQMTQSPSSLSASVGDRVTITCRPSENIYSYLAWYQQKPGKAPKLLVYNAKALAEGVPSRFSGSGSGTDFTLTISSLQPEDFATYYCQHHFGAPWTFGQGTKVEIKR
notes: Humanized
B5: 人源化抗TIGIT抗体A1 (antibody, human IgG1, kappa, V domains shown)
VH: B4 VH
VL: B4 VL with V48I
notes: Humanized
B6: 人源化抗TIGIT抗体A3 (antibody, human IgG1, kappa, V domains shown)
VH: B4 VH
VL: B4 VL with K42N, D70Q
notes: Humanized
B7: 人源化抗TIGIT抗体A4 (antibody, human IgG1, kappa, V domains shown)
VH: B4 VH
VL: B4 VL with K42N, A43S, D70Q, Q100G
notes: Humanized

How the values were obtained:
[1] = target: T1, 表达于CHOK1细胞表面的人TIGIT (CHOK1/人TIGIT细胞, 吉满生物 GM-C01116) (human, UniProt Q495A1 22-244); assay: flow cytometry on CHOK1/hTIGIT cells
T1 construct: whole, on cells; Purchased cell line; also called CHOK1/hTIGIT
T1 sequence (looked up): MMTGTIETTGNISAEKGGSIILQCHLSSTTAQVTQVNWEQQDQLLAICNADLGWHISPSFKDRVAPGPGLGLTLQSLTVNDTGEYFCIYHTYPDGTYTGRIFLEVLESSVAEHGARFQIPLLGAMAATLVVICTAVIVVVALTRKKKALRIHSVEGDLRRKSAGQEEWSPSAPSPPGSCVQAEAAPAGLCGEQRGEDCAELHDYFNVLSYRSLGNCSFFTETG

[2] = target: T1, 表达于CHOK1细胞表面的人TIGIT (CHOK1/人TIGIT细胞, …); assay: flow cytometry competition, EC50 of % inhibition of Biotinylated-CD155 (0.6μg/ml) binding to CHOK1/human TIGIT cells
[3] = target: T1, 表达于CHOK1细胞表面的人TIGIT (CHOK1/人TIGIT细胞, …); assay: flow cytometry on CHOK1/hTIGIT cells, EC50 of MFI
[4] = target: T1, 表达于CHOK1细胞表面的人TIGIT (CHOK1/人TIGIT细胞, …); assay: flow cytometry competition, inhibition of Biotinylated-CD155 (0.6μg/ml) binding to CHOK1/human TIGIT cells
[5] = target: Jurkat-hTIGIT-NFAT-CD226细胞上过表达的人TIGIT (human); assay: cell-based or functional assay
[6] = target: Jurkat-hTIGIT-NFAT-CD226细胞上过表达的人TIGIT (human); assay: cell-based or functional assay; remark: listed apart in the source
[7] = target: T1, 表达于CHOK1细胞表面的人TIGIT (CHOK1/人TIGIT细胞, …); assay: flow cytometry competition, EC50 of % inhibition of Biotinylated-CD155 (0.6μg/ml) binding to CHOK1/hTIGIT cells
[8] = target: T1, 表达于CHOK1细胞表面的人TIGIT (CHOK1/人TIGIT细胞, …); assay: flow cytometry competition, inhibition of Biotinylated-CD155 (0.6μg/ml) binding to CHOK1/hTIGIT cells
[9] = target: T2, SPH-B011-A-Antigen-his蛋白 (人TIGIT) (human, UniProt Q495A1 22-141, limits assumed); assay: Biacore, antibody captured on anti-Fc CM5 chip, human TIGIT-his 100nM as analyte, 25℃
T2 construct: Analyte of the Biacore assay; also called 抗原(人TIGIT); not shown: his tag
T2 sequence (looked up): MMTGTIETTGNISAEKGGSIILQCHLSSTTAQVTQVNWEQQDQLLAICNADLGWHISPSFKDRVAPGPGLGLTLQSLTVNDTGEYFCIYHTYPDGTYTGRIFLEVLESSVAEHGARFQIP

Jurkat-hTIGIT-NFAT-CD226细胞上过表达的人TIGIT (human), sequence (Q495A1 whole entry): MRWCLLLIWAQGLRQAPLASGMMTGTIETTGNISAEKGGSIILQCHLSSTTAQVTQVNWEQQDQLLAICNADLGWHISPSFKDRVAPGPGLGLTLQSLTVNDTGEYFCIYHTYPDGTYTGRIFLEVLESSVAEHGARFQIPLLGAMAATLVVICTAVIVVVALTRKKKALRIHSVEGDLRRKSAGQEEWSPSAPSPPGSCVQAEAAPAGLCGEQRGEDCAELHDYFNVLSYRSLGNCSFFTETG

| Binder | 最大MFI [1] | EC50 [2] | EC50 [3] | 最大抑制 [4] | EC50(μg/ml)of RLU [5] | 最大RLU [5] | EC50(μg/ml)of RLU [6] | Max RLU [6] | EC50 [7] | 最大抑制 [8] | Kd [9] | koff [9] | kon [9] |
| --- | --- | --- | --- | --- | --- | --- | --- | --- | --- | --- | --- | --- | --- |
| B1 | 13500 MFI | 0.189 µg/mL | 0.264 µg/mL | 99.7% | 0.633 µg/mL | 9080 RLU | 0.305 µg/mL | 10500 RLU | 0.306 µg/mL | 100% | – | – | – |
| B2 | 10300 MFI | 0.103 µg/mL | 0.214 µg/mL | 100% | 0.534 µg/mL | 8840 RLU | 0.357 µg/mL | 9610 RLU | 0.309 µg/mL | 100% | – | – | – |
| B3 | 9890 MFI | 0.138 µg/mL | ~0.139 µg/mL | 99.8% | 0.922 µg/mL | 8260 RLU | 1.32 µg/mL | 9270 RLU | 0.384 µg/mL | 99.2% | – | – | – |
| B4 | 10600 MFI | – | 0.312 µg/mL | – | – | – | 1.01 µg/mL | 9210 RLU | 0.406 µg/mL | 99.6% | 4.3 nM | 0.00241 s⁻¹ | 560000 M⁻¹ s⁻¹ |
| B5 | 10800 MFI | – | 0.36 µg/mL | – | – | – | 1.18 µg/mL | 8950 RLU | 0.43 µg/mL | 99.3% | 4.62 nM | 0.00251 s⁻¹ | 544000 M⁻¹ s⁻¹ |
| B6 | 10200 MFI | – | 0.329 µg/mL | – | – | – | 0.782 µg/mL | 9370 RLU | 0.427 µg/mL | 99.6% | 4.66 nM | 0.00225 s⁻¹ | 483000 M⁻¹ s⁻¹ |
| B7 | 10100 MFI | – | 0.496 µg/mL | – | – | – | 0.847 µg/mL | 8810 RLU | 0.27 µg/mL | 99.5% | 4.85 nM | 0.00257 s⁻¹ | 529000 M⁻¹ s⁻¹ |

From patent CN114907476A (SHANGHAI PHARMACEUTICALS HOLDING CO LTD, dated 2022)
